Experiments:
Test in all cases: pyrophosphatase-coupled Pi release assay
[1] = substrate: Cc1cn([C@@H]2O[C@H](COP(=O)(O)OP(=O)(O)OP(=O)(O)O)[C@@H](O)[C@H]2O)c(=O)[nH]c1=O; assay type: biochemical, Bacillus subtilis; conditions: 2 mM Co2+, 30°C
Excerpt: (§1) pyrophosphatase-coupled Pi release assay on BSU28050

[2] = substrate: Cc1cn([C@@H]2O[C@H](COP(=O)(O)OP(=O)(O)OP(=O)(O)O)[C@@H](O)[C@H]2O)c(=O)nc1N; assay type: biochemical, Bacillus subtilis; conditions: 2 mM Co2+, 30°C
Excerpt: as §1

[3] = substrate: Nc1ccn([C@@H]2O[C@H](COP(=O)(O)OP(=O)(O)OP(=O)(O)O)[C@@H](O)[C@H]2O)c(=O)n1; assay type: biochemical, Bacillus subtilis; conditions: 2 mM Co2+, 30°C
Excerpt: as §1

[4] = substrate: O=c1[nH]cc([C@@H]2O[C@H](COP(=O)(O)OP(=O)(O)OP(=O)(O)O)[C@@H](O)[C@H]2O)c(=O)[nH]1; assay type: biochemical, Bacillus subtilis; conditions: 2 mM Co2+, 30°C
Excerpt: as §1

[5] = substrate: Cc1cn([C@@H]2O[C@H](COP(=O)(O)OP(=O)(O)OP(=O)(O)O)[C@@H](O)[C@H]2O)c(=O)[nH]c1=O; assay type: biochemical, Saccharomyces cerevisiae; conditions: 2 mM Co2+, 30°C
Excerpt: (§2) pyrophosphatase-coupled Pi release assay on YOR111W

[6] = substrate: O=c1[nH]cc([C@@H]2O[C@H](COP(=O)(O)OP(=O)(O)OP(=O)(O)O)[C@@H](O)[C@H]2O)c(=O)[nH]1; assay type: biochemical, Saccharomyces cerevisiae; conditions: 2 mM Co2+, 30°C
Excerpt: as §2

[7] = substrate: O=c1ccn([C@@H]2O[C@H](COP(=O)(O)OP(=O)(O)OP(=O)(O)O)[C@@H](O)[C@H]2O)c(=O)[nH]1; assay type: biochemical, Saccharomyces cerevisiae; conditions: 2 mM Co2+, 30°C
Excerpt: as §2

[8] = substrate: CNc1ccn([C@H]2C[C@H](O)[C@@H](COP(=O)(O)OP(=O)(O)OP(=O)(O)O)O2)c(=O)n1; assay type: biochemical, Homo sapiens; conditions: 2 mM Co2+, 37°C
Excerpt: (§3) pyrophosphatase-coupled Pi release assay on ASMTL-Maf

[9] = substrate: Cc1cn([C@@H]2O[C@H](COP(=O)(O)OP(=O)(O)OP(=O)(O)O)[C@@H](O)[C@H]2O)c(=O)[nH]c1=O; assay type: biochemical, Homo sapiens; conditions: 2 mM Co2+, 37°C
Excerpt: as §3

[10] = substrate: Nc1ccn([C@@H]2O[C@H](COP(=O)(O)OP(=O)(O)OP(=O)(O)O)[C@@H](O)[C@H]2O)c(=O)n1; assay type: biochemical, Homo sapiens; conditions: 2 mM Co2+, 37°C
Excerpt: as §3

[11] = substrate: Nc1nc2c([nH]c(=O)n2[C@@H]2O[C@H](CO[P@@](=O)(O)O[P@@](=O)(O)OP(=O)(O)O)[C@@H](O)[C@H]2O)c(=O)[nH]1; assay type: biochemical, Homo sapiens; conditions: 2 mM Co2+, 37°C
Excerpt: as §3

[12] = substrate: C[n+]1cn([C@@H]2O[C@H](COP(=O)(O)OP(=O)(O)OP(=O)(O)O)[C@@H](O)[C@H]2O)c2nc(N)[nH]c(=O)c21; assay type: biochemical, Escherichia coli; conditions: 2 mM Co2+, 37°C
Excerpt: pyrophosphatase-coupled Pi release assay on YceF

[13] = substrate: Cc1cn([C@@H]2O[C@H](COP(=O)(O)OP(=O)(O)OP(=O)(O)O)[C@@H](O)[C@H]2O)c(=O)[nH]c1=O; assay type: biochemical, Escherichia coli; conditions: 2 mM Co2+, 37°C
Excerpt: (§4) pyrophosphatase-coupled Pi release assay on YhdE

[14] = substrate: Cc1cn([C@@H]2O[C@H](COP(=O)(O)OP(=O)(O)OP(=O)(O)O)[C@@H](O)[C@H]2O)c(=O)nc1N; assay type: biochemical, Escherichia coli; conditions: 2 mM Co2+, 37°C
Excerpt: as §4

[15] = substrate: Cc1cn([C@H]2C[C@H](O)[C@@H](COP(=O)(O)OP(=O)(O)OP(=O)(O)O)O2)c(=O)[nH]c1=O; assay type: biochemical, Escherichia coli; conditions: 2 mM Co2+, 37°C
Excerpt: as §4

[16] = substrate: O=c1[nH]cc([C@@H]2O[C@H](COP(=O)(O)OP(=O)(O)OP(=O)(O)O)[C@@H](O)[C@H]2O)c(=O)[nH]1; assay type: biochemical, Escherichia coli; conditions: 2 mM Co2+, 37°C
Excerpt: as §4

[17] = substrate: C[n+]1cn([C@@H]2O[C@H](COP(=O)(O)OP(=O)(O)OP(=O)(O)O)[C@@H](O)[C@H]2O)c2nc(N)[nH]c(=O)c21; assay type: biochemical, Salmonella enterica; conditions: 2 mM Co2+, 37°C
Excerpt: pyrophosphatase-coupled Pi release assay on STM1189

B1: BSU28050 (Bacillus subtilis subsp. subtilis str. 168) (protein)
chain: MTKPLILASQSPRRKELLDLLQLPYSIIVSEVEEKLNRNFSPEENVQWLAKQKAKAVADLHPHAIVIGADTMVCLDGECLGKPQDQEEAASMLRRLSGRSHSVITAVSIQAENHSETFYDKTEVAFWSLSEEEIWTYIETKEPMDKAGAYGIQGRGALFVKKIDGDYYSVMGLPISKTMRALRHFDIRA
notes: full-length recombinant, expressed in E. coli; dimer
Work on B1 yielded a Km [1] of 4.7 ± 0.2 µM, a kcat [1] of 2.4 ± 0.1 s⁻¹ and a kcat/Km [1] of 510000 M⁻¹ s⁻¹. The Km [2] was 7.8 ± 0.2 µM, the kcat [2] was 8.5 ± 0.1 s⁻¹ and the kcat/Km [2] was 1.1e+06 M⁻¹ s⁻¹. For the same protein, the Km [3] was 25.0 ± 0.8 µM, the kcat [3] was 7.1 ± 0.1 s⁻¹ and the kcat/Km [3] was 280000 M⁻¹ s⁻¹. The Km [4] was 5.7 ± 0.3 µM, the kcat [4] was 7.2 ± 0.2 s⁻¹ and the kcat/Km [4] was 1.3e+06 M⁻¹ s⁻¹.

B2: YOR111W (Saccharomyces cerevisiae S288C) (protein)
chain: MSGNSQLPPDVIGFICSKYDIILASTSPRRYEILHDIMGITDLKTMVSTFEENLDKMNYSTDPIGYVCDTSWHKAQNIIEILTDYEDENPNEIDKPKLIICADTIIIDKSGRIYEKPKTKEVQKKFLMKFCYEDDEPVNVVTAVTLIKWYGRENFELVPFRDETKVYFDNKIPLRILEEYVESGDGLEVGGGFKIQGQGAILIEKIEGDYYNVVGLPLNKTFKGLYAEANSI
notes: full-length recombinant, expressed in E. coli
B2 showed a Km [5] of 13.0 ± 0.3 µM, a kcat [5] of 2.2 ± 0.1 s⁻¹ and a kcat/Km [5] of 170000 M⁻¹ s⁻¹. It also gave a Km [6] of 20 ± 0.4 µM, a kcat [6] of 5.3 ± 0.1 s⁻¹ and a kcat/Km [6] of 270000 M⁻¹ s⁻¹. The Km [7] was 29.7 ± 1.4 µM, the kcat [7] was 2.6 ± 0.1 s⁻¹ and the kcat/Km [7] was 88000 M⁻¹ s⁻¹.

B3: ASMTL-Maf (Homo sapiens) (protein)
chain: MVLCPVIGKLLHKRVVLASASPRRQEILSNAGLRFEVVPSKFKEKLDKASFATPYGYAMETAKQKALEVANRLYQKDLRAPDVVIGADTIVTVGGLILEKPVDKQDAYRMLSRLSGREHSVFTGVAIVHCSSKDHQLDTRVSEFYEETKVKFSELSEELLWEYVHSGEPMDKAGGYGIQALGGMLVESVHGDFLNVVGFPLNHFCKQLVKLYYPPRPEDLRRSVKHDSIPAADTFEDLS
notes: N-terminal Maf domain, residues 1-239, recombinant from E. coli; dimer
In the case of B3, the Km [8] is reported as 10.3 ± 0.7 µM, the kcat [8] is reported as 0.3 ± 0.01 s⁻¹ and the kcat/Km [8] is reported as 29000 M⁻¹ s⁻¹. The Km [9] was 16.1 ± 1.5 µM, the kcat [9] was 1.5 ± 0.1 s⁻¹ and the kcat/Km [9] was 93000 M⁻¹ s⁻¹. For the same protein, the Km [10] was 17.4 ± 0.8 µM, the kcat [10] was 0.8 ± 0.02 s⁻¹ and the kcat/Km [10] was 46000 M⁻¹ s⁻¹. For the same protein, the Km [11] was 10.7 ± 0.6 µM, the kcat [11] was 0.2 ± 0.01 s⁻¹ and the kcat/Km [11] was 19000 M⁻¹ s⁻¹.

B4: YceF (Escherichia coli K-12) (protein)
chain: MPKLILASTSPWRRALLEKLQISFECAAPEVDETPRSDESPRQLVLRLAQEKAQSLASRYPDHLIIGSDQVCVLDGEITGKPLTEENARLQLRKASGNIVTFYTGLALFNSANGHLQTEVEPFDVHFRHLSEAEIDNYVRKEHPLHCAGSFKSEGFGITLFERLEGRDPNTLVGLPLIALCQMLRREGKNPLMG
notes: full-length recombinant, expressed in E. coli; mixture of monomers and dimers
B4 gave a Km [12] of 32.8 ± 3.1 µM, a kcat [12] of 1.2 ± 0.1 s⁻¹ and a kcat/Km [12] of 37000 M⁻¹ s⁻¹.

B5: YhdE (Escherichia coli K-12) (protein)
chain: MTSLYLASGSPRRQELLAQLGVTFERIVTGIEEQRQPQESAQQYVVRLAREKARAGVAQTAKDLPVLGADTIVILNGEVLEKPRDAEHAAQMLRKLSGQTHQVMTAVALADSQHILDCLVVTDVTFRTLTDEDIAGYVASDEPLDKAGAYGIQGLGGCFVRKINGSYHAVVGLPLVETYELLSNFNALREKRDKHDG
notes: full-length recombinant, expressed in E. coli; predicted monomer mass 24 kDa; mixture of dimers and tetramers
For B5, the Km [13] was 32.0 ± 2.2 µM, the kcat [13] was 18.2 ± 0.7 s⁻¹ and the kcat/Km [13] was 570000 M⁻¹ s⁻¹. The Km [14] was 44.8 ± 2.2 µM, the kcat [14] was 9.2 ± 0.2 s⁻¹ and the kcat/Km [14] was 210000 M⁻¹ s⁻¹. For the same protein, the Km [15] was 53.0 ± 2.0 µM, the kcat [15] was 15.4 ± 0.3 s⁻¹ and the kcat/Km [15] was 290000 M⁻¹ s⁻¹. It also gave a Km [16] of 47.2 ± 1.5 µM, a kcat [16] of 10.5 ± 0.2 s⁻¹ and a kcat/Km [16] of 220000 M⁻¹ s⁻¹.

B6: STM1189 (Salmonella enterica subsp. enterica serovar Typhimurium str. LT2) (protein)
chain: MPRLILASTSPWRRALLEKLTIPFECAAPDVDETPMPGEAPRQLVLRLAQAKAQSLAARFPNHLIIGSDQICVLDGEITGKPLTEEKARQQLAKASGNIVTFYTGLALYNSASGHLQTEVEPFDVHFRHLSEAEIDDYVRKEHPLHCAGSFKSEGLGIALFERLEGRDPNTLIGLPLIALCQMLRREGFNPLQQ
notes: as for B2
B6 showed a Km [17] of 30.9 ± 1.2 µM, a kcat [17] of 1.5 ± 0.1 s⁻¹ and a kcat/Km [17] of 49000 M⁻¹ s⁻¹.
